Experimental data from US20250277023A1 (published 2025).

T1: TIGIT (on CHO-TIGIT cells) (UniProt Q495A1 22-244)
T1 chain: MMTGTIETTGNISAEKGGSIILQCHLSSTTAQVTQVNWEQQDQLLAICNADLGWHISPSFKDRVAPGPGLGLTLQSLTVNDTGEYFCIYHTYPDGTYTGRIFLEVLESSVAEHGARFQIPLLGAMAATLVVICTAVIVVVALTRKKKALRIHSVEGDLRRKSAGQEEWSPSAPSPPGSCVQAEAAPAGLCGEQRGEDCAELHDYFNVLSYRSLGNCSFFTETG

B1: R1123: TIGIT_VH_IL21R/TIGIT_VL_IL21/PD-L1-Fab (bispecific antibody)
chain 1: not shown
chain 2: not shown
heavy: EVQLQESGPGLVKPSETLSLTCAVYGDSITSGYWNWIRKPPGKGLEYMGYISYTGSTYQNPSLKSRITFSRDTSKNQYYLKLSSVTAADTATYYCARSRAWIRTYFDYWGQGTLVTVSSASTKGPSVFPLAPSSKSTSGGTAALGCLVKDYFPEPVTVSWNSGALTSGVHTFPAVLQSSGLYSLSSVVTVPSSSLGTQTYICNVNHKPSNTKVDKRVEPKSCDKTHTCPPCPAPELLGGPSVFLFPPKPKDTLMISRTPEVTCVVVDVSHEDPEVKFNWYVDGVEVHNAKTKPREEQYNSTYRVVSVLTVLHQDWLNGKEYKCKVSNKALPAPIEKTISKAKGQPREPQVYTLPPSREEMTKNQVSLWCLVKGFYPSDIAVEWESNGQPENNYDTTPPVLDSDGSFFLYSDLTVDKSRWQQGNVFSCSVMHEALHNHYTQKSLSLSPGK
light: EIVLTQSPDFQSVTPKEKVTITCSVSSSISSSNLHWYQQKPDQSPKLLIYGTSNLASGVPSRFSGSGSGTDFTLTINSLEAEDAATYYCQQWSSYPLTFGQGTKLEIKRTVAAPSVFIFPPSDEQLKSGTASVVCLLNNFYPREAKVQWKVDNALQSGNSQESVTEQDSKDSTYSLSSTLTLSKADYEKHKVYACEVTHQGLSSPVTKSFNRGEC
B2: R0774 (Tigit monoclonal antibody) (antibody, V domains shown)
VH: QVQLVQSGAEVKKPGSSVKVSCKASGYSFTSYWMNWVRQAPGQGLEWIGMIRPSDSETRLNQMFKDRVTITVDKSTSTAYMELSSLRSEDTAVYYCAGIHDYGHGAYWGQGTLVTVSS
VL: DIQMTQSPSSLSASVGDRVTITCRASENIYSNLAWYQQKPGKSPKLLVYAASHLPDGVPSRFSGSGSGTDYSLTISSLQPEDFATYYCQHFWGTPRTFGQGTKLEIK
B3: R1043 (bispecific antibody)
chain 1: QVQLESEGGLFKPTDTLTLTCTVSGSSLSSSYMSWVRQAPGKGLEWIGIIGSNGNTYYANWAKGRFTISKTSTTVELKITSPTTEDTATYFCARGGYRTSGMDPWGPGTLVTVSSGGGGSGGGGSGGGGSGGGGSGITCPPPMSVEHADIWVKSYSLYSRERYICNSGFKRKAGTSSLTECVLNKATNVAHWTTPSLKCIRDPALVHQRPAPPSTVTTAGVTPQPESLSPSGKEPAASSPSSNNTAATTAAIVPGSQLMPSKSPSTGTTEISSHESSHGTPSQTTAKNWELTASASHQPPGVYPQGHSDTTEPRGPTIKPCPPCKCPAPNLLGGPSVFIFPPKIKDVLMISLSPIVTCVVVDVSEDDPDVQISWFVNNVEVHTAQTQTHREDYNSTLRVVSALPIQHQDWMSGKEFKCKVNNKDLPAPIERTISKPKGSVRAPQVYVLPPPEEEMTKKQVTLWCMVTDFMPEDIYVEWTNNGKTELNYDNTEPVLDSDGSYFMYSDLRVEKKNWVERNSYSCSVVHEGLHNHHTTKSFSRTPGK
chain 2: not shown
heavy: EVQLLESGGGLVQPGGSLRLSCAASGFTFSSYIMMWVRQAPGKGLEWVSSIYPSGGITFYADTVKGRFTISRDNSKNTLYLQMNSLRAEDTAVYYCARIKLGTVTTVDYWGQGTLVTVSSAKTTAPSVYPLAPVCGDTTGSSVTLGCLVKGYFPEPVTLTWNSGSLSSGVHTFPAVLQSDLYTLSSSVTVTSSTWPSQSITCNVAHPASSTKVDKKIEPRGPTIKPCPPCKCPAPNLLGGPSVFIFPPKIKDVLMISLSPIVTCVVVDVSEDDPDVQISWFVNNVEVHTAQTQTHREDYNSTLRVVSALPIQHQDWMSGKEFKCKVNNKDLPAPIERTISKPKGSVRAPQVYVLPPPEEEMTKKQVTLTCRVTDFMPEDIYVEWTNNGKTELNYKNTEPVLKSDGSYFMASKLRVEKKNWVERNSYSCSVVHEGLHNHHTTKSFSRTPGK
light: DIVMTQTPASVEVAVGGTVTIKCQASQSISSYLNWYQQKPGQPPKLLIYDALKLASGVPSRFSGSGSGTEYTLTISGVESADAATYYCQQEHSVGNVDNVFGGGTEVVVKRTDAAPTVSIFPPSSEQLTSGGASVVCFLNNFYPKDINVKWKIDGSERQNGVLNSWTDQDSKDSTYSMSSTLTLTKDEYERHNSYTCEATHKTSTSPIVKSFNRNEC
B4: R0950: PD-L1_VH_IL15RA/PD-L1_VL_IL15/TIGIT-Fab (bispecific antibody)
chain 1: EVQLLESGGGLVQPGGSLRLSCAASGFTFSSYIMMWVRQAPGKGLEWVSSIYPSGGITFYADTVKGRFTISRDNSKNTLYLQMNSLRAEDTAVYYCARIKLGTVTTVDYWGQGTLVTVSSGGGGSGGGGSGGGGSGGGGSGITCPPPMSVEHADIWVKSYSLYSRERYICNSGFKRKAGTSSLTECVLNKATNVAHWTTPSLKCIRDPALVHQRPAPPSTVTTAGVTPQPESLSPSGKEPAASSPSSNNTAATTAAIVPGSQLMPSKSPSTGTTEISSHESSHGTPSQTTAKNWELTASASHQPPGVYPQGHSDTTEPRGPTIKPCPPCKCPAPNLLGGPSVFIFPPKIKDVLMISLSPIVTCVVVDVSEDDPDVQISWFVNNVEVHTAQTQTHREDYNSTLRVVSALPIQHQDWMSGKEFKCKVNNKDLPAPIERTISKPKGSVRAPQVYVLPPPEEEMTKKQVTLWCMVTDFMPEDIYVEWTNNGKTELNYDNTEPVLDSDGSYFMYSDLRVEKKNWVERNSYSCSVVHEGLHNHHTTKSFSRTPGK
chain 2: not shown
heavy: QVQLESEGGLFKPTDTLTLTCTVSGSSLSSSYMSWVRQAPGKGLEWIGIIGSNGNTYYANWAKGRFTISKTSTTVELKITSPTTEDTATYFCARGGYRTSGMDPWGPGTLVTVSSAKTTAPSVYPLAPVCGDTTGSSVTLGCLVKGYFPEPVTLTWNSGSLSSGVHTFPAVLQSDLYTLSSSVTVTSSTWPSQSITCNVAHPASSTKVDKKIEPRGPTIKPCPPCKCPAPNLLGGPSVFIFPPKIKDVLMISLSPIVTCVVVDVSEDDPDVQISWFVNNVEVHTAQTQTHREDYNSTLRVVSALPIQHQDWMSGKEFKCKVNNKDLPAPIERTISKPKGSVRAPQVYVLPPPEEEMTKKQVTLTCRVTDFMPEDIYVEWTNNGKTELNYKNTEPVLKSDGSYFMASKLRVEKKNWVERNSYSCSVVHEGLHNHHTTKSFSRTPGK
light: B3 light
B5: R1042: PD-L1_VH_IL15RA/TIGIT_VL_IL15/TIGIT_VH/PD-L1-VL (bispecific antibody)
chain 1: B4 chain 1
chain 2: not shown
heavy: B4 heavy
light: QSALTQPASVSGSPGQSITISCTGTSSDVGGYNYVSWYQQHPGKAPKLMIYDVSNRPSGVSNRFSGSKSGNTASLTISGLQAEDEADYYCSSYTSSSTRVFGTGTKVTVLRTDAAPTVSIFPPSSEQLTSGGASVVCFLNNFYPKDINVKWKIDGSERQNGVLNSWTDQDSKDSTYSMSSTLTLTKDEYERHNSYTCEATHKTSTSPIVKSFNRNEC
B6: R1042 (bispecific antibody)
chain 1: B4 chain 1
chain 2: not shown
heavy: B4 heavy
light: B5 light

Columns and labels:
[1] = biological target: T2, PD-L1 (on CHO-PD-L1 cells) (UniProt Q9NZQ7 19-290); assay: FACS binding; Fig. 22
[2] = biological target: T1, TIGIT (on CHO-TIGIT cells); assay: FACS binding; Fig. 17
IL15R = assay: FACS binding; Fig. 29
[3] = biological target: T2, PD-L1 (on CHO-PD-L1 cells); assay: FACS binding; Fig. 23
[4] = biological target: T2, PD-L1 (on CHO-PD-L1 cells); assay: FACS binding; Fig. 21

T2 sequence (Q9NZQ7 19-290): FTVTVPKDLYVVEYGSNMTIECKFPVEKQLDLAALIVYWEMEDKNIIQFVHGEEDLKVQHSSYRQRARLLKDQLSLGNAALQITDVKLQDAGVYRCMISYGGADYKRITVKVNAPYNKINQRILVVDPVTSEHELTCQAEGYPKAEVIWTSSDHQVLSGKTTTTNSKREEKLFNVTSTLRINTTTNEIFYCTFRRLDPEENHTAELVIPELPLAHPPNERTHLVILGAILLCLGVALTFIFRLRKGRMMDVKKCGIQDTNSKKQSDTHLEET

Binder | EC50 [2] | EC50 (IL15R) | EC50 [3] | also measured
B1 | 2.89 nM |  |  | EC50 [1]: 5.22 nM
B2 | 0.678 nM |  |  | 
B3 |  | 1.07 nM |  | 
B4 |  |  | 0.903 nM | EC50 [4]: 0.571 nM
B5 |  |  | 7.29 nM | 
B6 |  | 0.862 nM |  | 
